The record followed here is ChEMBL document CHEMBL2074325, “The multidrug resistance protein 5 functions as an ATP-dependent export pump for cyclic nucleotides” (J Biol Chem, 2000).

The subject of the data set is [H][C@@]12COP(=O)(O)O[C@@]1([H])[C@@H](O)[C@H](n1cnc3c(=O)[nH]c(N)nc31)O2. Kind of data set: TP_TRANSPORTER: uptake in membrane vesicles from MRP5-expressing V79 cells. The format is functional, cell membranes, Membrane vesicle.

As to “ATP-binding cassette sub-family C member 5 (Homo sapiens)”, the Michaelis-Menten constant (Km) (usually the substrate concentration at which the rate is half of its maximum) amounted to 2.1 µM.
